In patent US20160326230A1, “HUMAN RELAXIN ANALOGUE, PHARMACEUTICAL COMPOSITION OF SAME, AND PHARMACEUTICAL APPLICATION OF SAME” (SHANGHAI HENGRUI PHARMACEUTICAL CO., LTD., priority 2013, published 2016):
Positions of bridges follow the written chain, without caps; N, C: chain ends. Chains are numbered I, II in the order given. No end group written: not given here.

Target: the receptor on THP-1 cells
Test: cell-based or functional assay

B1: recombinant human relaxin analog 800814 (ligand)
chain 1: DSWMEEVIKLCGRDLVRAQIAICGMSTWS
chain 2: DLYSALANKCCHVGCTKRSLARFC
modifications: disulfide I:23-II:24; also: two more disulfides among A10, A11, A15 and B11
- EC50 (ng/ml) of cAMP induced in THP-1 cells (cAMP ELISA): 1.5 ng/mL
